Data as given in US20110118131A1 (published 2011).

T1: Ep-CAM (UniProt P16422 24-265, limits assumed)
T1 construct: Amine coupled to a CM5 chip in the Biacore assays
T1 sequence (looked up): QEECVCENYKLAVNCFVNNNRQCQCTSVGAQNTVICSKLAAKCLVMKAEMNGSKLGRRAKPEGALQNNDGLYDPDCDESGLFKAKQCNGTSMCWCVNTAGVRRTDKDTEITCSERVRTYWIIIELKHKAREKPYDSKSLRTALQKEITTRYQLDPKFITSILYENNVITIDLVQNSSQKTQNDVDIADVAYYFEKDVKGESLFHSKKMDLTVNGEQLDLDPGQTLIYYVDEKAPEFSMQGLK


The binders below were run against T1, Ep-CAM (assay: Biacore, Fab periplasmic extract).

binding result | fold difference in affinity vs parental ING-1 [fold] | Binder
no binding | – | ING-1 light chain R101F (Fab, V domains shown, Fab, periplasmic extract) VH: QIQLVQSGPELKKPGETVKISCKASGYTFTKYGMNWVKQAPGKGLKWMGWINTYTEEPTYGDDFKGRFAFSLETSASTANLQINNLKSEDTATYFCARFGSAVDYWGQGTSVTVSS VL: DIVMTQAAFSNPVTLGTSGSISCRSSKSLLHSNGITYLYWYLQKPGQSPQLLIYQMSNLASGVPDRFSSSGSGTDFTLRISRVEAEDVGVYYCAQNLELPFTFGGGTKLEMKR
no binding | – | ING-1 light chain R101H (Fab, V domains shown, Fab, periplasmic extract) VH: QIQLVQSGPELKKPGETVKISCKASGYTFTKYGMNWVKQAPGKGLKWMGWINTYTEEPTYGDDFKGRFAFSLETSASTANLQINNLKSEDTATYFCARFGSAVDYWGQGTSVTVSS VL: DIVMTQAAFSNPVTLGTSGSISCRSSKSLLHSNGITYLYWYLQKPGQSPQLLIYQMSNLASGVPDRFSSSGSGTDFTLRISRVEAEDVGVYYCAQNLELPHTFGGGTKLEMKR
no binding | – | ING-1 light chain S32N (Fab, V domains shown, Fab, periplasmic extract) VH: QIQLVQSGPELKKPGETVKISCKASGYTFTKYGMNWVKQAPGKGLKWMGWINTYTEEPTYGDDFKGRFAFSLETSASTANLQINNLKSEDTATYFCARFGSAVDYWGQGTSVTVSS VL: DIVMTQAAFSNPVTLGTSGSISCRSSKSLLHNNGITYLYWYLQKPGQSPQLLIYQMSNLASGVPDRFSSSGSGTDFTLRISRVEAEDVGVYYCAQNLELPRTFGGGTKLEMKR
no binding | – | ING-1 light chain S28N (Fab, V domains shown, Fab, periplasmic extract) VH: QIQLVQSGPELKKPGETVKISCKASGYTFTKYGMNWVKQAPGKGLKWMGWINTYTEEPTYGDDFKGRFAFSLETSASTANLQINNLKSEDTATYFCARFGSAVDYWGQGTSVTVSS VL: DIVMTQAAFSNPVTLGTSGSISCRSSKNLLHSNGITYLYWYLQKPGQSPQLLIYQMSNLASGVPDRFSSSGSGTDFTLRISRVEAEDVGVYYCAQNLELPRTFGGGTKLEMKR
no binding | – | ING-1 light chain R101W (Fab, V domains shown, Fab, periplasmic extract) VH: QIQLVQSGPELKKPGETVKISCKASGYTFTKYGMNWVKQAPGKGLKWMGWINTYTEEPTYGDDFKGRFAFSLETSASTANLQINNLKSEDTATYFCARFGSAVDYWGQGTSVTVSS VL: DIVMTQAAFSNPVTLGTSGSISCRSSKSLLHSNGITYLYWYLQKPGQSPQLLIYQMSNLASGVPDRFSSSGSGTDFTLRISRVEAEDVGVYYCAQNLELPWTFGGGTKLEMKR
no binding | – | ING-1 light chain S57Y (Fab, V domains shown, Fab, periplasmic extract) VH: QIQLVQSGPELKKPGETVKISCKASGYTFTKYGMNWVKQAPGKGLKWMGWINTYTEEPTYGDDFKGRFAFSLETSASTANLQINNLKSEDTATYFCARFGSAVDYWGQGTSVTVSS VL: DIVMTQAAFSNPVTLGTSGSISCRSSKSLLHSNGITYLYWYLQKPGQSPQLLIYQMYNLASGVPDRFSSSGSGTDFTLRISRVEAEDVGVYYCAQNLELPRTFGGGTKLEMKR
no binding | – | ING-1 light chain T36R (Fab, V domains shown, Fab, periplasmic extract) VH: QIQLVQSGPELKKPGETVKISCKASGYTFTKYGMNWVKQAPGKGLKWMGWINTYTEEPTYGDDFKGRFAFSLETSASTANLQINNLKSEDTATYFCARFGSAVDYWGQGTSVTVSS VL: DIVMTQAAFSNPVTLGTSGSISCRSSKSLLHSNGIRYLYWYLQKPGQSPQLLIYQMSNLASGVPDRFSSSGSGTDFTLRISRVEAEDVGVYYCAQNLELPRTFGGGTKLEMKR
no binding | – | ING-1 light chain S57Q (Fab, V domains shown, Fab, periplasmic extract) VH: QIQLVQSGPELKKPGETVKISCKASGYTFTKYGMNWVKQAPGKGLKWMGWINTYTEEPTYGDDFKGRFAFSLETSASTANLQINNLKSEDTATYFCARFGSAVDYWGQGTSVTVSS VL: DIVMTQAAFSNPVTLGTSGSISCRSSKSLLHSNGITYLYWYLQKPGQSPQLLIYQMQNLASGVPDRFSSSGSGTDFTLRISRVEAEDVGVYYCAQNLELPRTFGGGTKLEMKR

More lines, now with the values behind:

Binder | binding result | fold difference in affinity vs parental ING-1 [fold]
ING-1 light chain R101E (Fab, V domains shown, Fab, periplasmic extract) VH: QIQLVQSGPELKKPGETVKISCKASGYTFTKYGMNWVKQAPGKGLKWMGWINTYTEEPTYGDDFKGRFAFSLETSASTANLQINNLKSEDTATYFCARFGSAVDYWGQGTSVTVSS VL: DIVMTQAAFSNPVTLGTSGSISCRSSKSLLHSNGITYLYWYLQKPGQSPQLLIYQMSNLASGVPDRFSSSGSGTDFTLRISRVEAEDVGVYYCAQNLELPETFGGGTKLEMKR | no binding | –
ING-1 light chain R101Q (Fab, V domains shown, Fab, periplasmic extract) VH: QIQLVQSGPELKKPGETVKISCKASGYTFTKYGMNWVKQAPGKGLKWMGWINTYTEEPTYGDDFKGRFAFSLETSASTANLQINNLKSEDTATYFCARFGSAVDYWGQGTSVTVSS VL: DIVMTQAAFSNPVTLGTSGSISCRSSKSLLHSNGITYLYWYLQKPGQSPQLLIYQMSNLASGVPDRFSSSGSGTDFTLRISRVEAEDVGVYYCAQNLELPQTFGGGTKLEMKR | no binding | –
ING-1 light chain R101Y (Fab, V domains shown, Fab, periplasmic extract) VH: QIQLVQSGPELKKPGETVKISCKASGYTFTKYGMNWVKQAPGKGLKWMGWINTYTEEPTYGDDFKGRFAFSLETSASTANLQINNLKSEDTATYFCARFGSAVDYWGQGTSVTVSS VL: DIVMTQAAFSNPVTLGTSGSISCRSSKSLLHSNGITYLYWYLQKPGQSPQLLIYQMSNLASGVPDRFSSSGSGTDFTLRISRVEAEDVGVYYCAQNLELPYTFGGGTKLEMKR | no binding | –
ING-1 light chain T36D (Fab, V domains shown, Fab, periplasmic extract) VH: QIQLVQSGPELKKPGETVKISCKASGYTFTKYGMNWVKQAPGKGLKWMGWINTYTEEPTYGDDFKGRFAFSLETSASTANLQINNLKSEDTATYFCARFGSAVDYWGQGTSVTVSS VL: DIVMTQAAFSNPVTLGTSGSISCRSSKSLLHSNGIDYLYWYLQKPGQSPQLLIYQMSNLASGVPDRFSSSGSGTDFTLRISRVEAEDVGVYYCAQNLELPRTFGGGTKLEMKR | – | 0.05
ING-1 light chain R101N (Fab, V domains shown, Fab, periplasmic extract) VH: QIQLVQSGPELKKPGETVKISCKASGYTFTKYGMNWVKQAPGKGLKWMGWINTYTEEPTYGDDFKGRFAFSLETSASTANLQINNLKSEDTATYFCARFGSAVDYWGQGTSVTVSS VL: DIVMTQAAFSNPVTLGTSGSISCRSSKSLLHSNGITYLYWYLQKPGQSPQLLIYQMSNLASGVPDRFSSSGSGTDFTLRISRVEAEDVGVYYCAQNLELPNTFGGGTKLEMKR | no binding | –
ING-1 light chain R101S (Fab, V domains shown, Fab, periplasmic extract) VH: QIQLVQSGPELKKPGETVKISCKASGYTFTKYGMNWVKQAPGKGLKWMGWINTYTEEPTYGDDFKGRFAFSLETSASTANLQINNLKSEDTATYFCARFGSAVDYWGQGTSVTVSS VL: DIVMTQAAFSNPVTLGTSGSISCRSSKSLLHSNGITYLYWYLQKPGQSPQLLIYQMSNLASGVPDRFSSSGSGTDFTLRISRVEAEDVGVYYCAQNLELPSTFGGGTKLEMKR | no binding | –
ING-1 light chain R101K (Fab, V domains shown, Fab, periplasmic extract) VH: QIQLVQSGPELKKPGETVKISCKASGYTFTKYGMNWVKQAPGKGLKWMGWINTYTEEPTYGDDFKGRFAFSLETSASTANLQINNLKSEDTATYFCARFGSAVDYWGQGTSVTVSS VL: DIVMTQAAFSNPVTLGTSGSISCRSSKSLLHSNGITYLYWYLQKPGQSPQLLIYQMSNLASGVPDRFSSSGSGTDFTLRISRVEAEDVGVYYCAQNLELPKTFGGGTKLEMKR | – | 0.04
